These results are taken from US20220193132A1 (NATIONAL RESEARCH COUNCIL OF CANADA, published 2022).

The target in assay [1] is T1, EGFRvIII, full length, overexpressed on glioblastoma cells (human, UniProt P00533 298-623).
T1 construct: Cells overexpress full length EGFRvIII (deletion of exons 2-7 of EGFR); Cell line (U87MG or DKMG) is named under assay; also called U87MG-EGFRvIII; U87vIII
Nature of the assay: flow cytometry dose-response on U87MG-EGFRvIII cells, apparent Kd. In general terms: In flow cytometry, cells or beads pass a laser one at a time.

Assay [2] has as its target T2, recombinant human wild type EGFR protein (extracellular domain), native (human, UniProt P00533 25-645).
T2 construct: also called wt EGFR; EGFR WT
Nature of the assay: ELISA Exp 2, purified mAb 1 ug/ml.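 Further: ELISA of purified mAb binding to plate-coated antigen, native or heat/DTT-denatured, with pNPP substrate developed for 30 min and incubations at room temperature.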

In assay [3] the target is T3, recombinant human EGFRvIII protein (extracellular domain), denatured (human, UniProt P00533 298-623).
T3 construct: Same protein as m21 after 95 C for 5 min in PBS with 40 mM DTT (denatured, reduced); also called EGFRvIII Denatured
Nature of the assay: ELISA Exp 2, purified mAb 1 ug/ml.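 Further: ELISA of purified mAb binding to plate-coated antigen, native or heat/DTT-denatured, with pNPP substrate developed for 30 min and incubations at room temperature.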 On the technique in general: An ELISA detects its analyte on a solid surface through an enzyme-linked reagent.

Assay [4] deals with T4, recombinant human EGFRvIII protein (extracellular domain), native (human, UniProt P00533 298-623).
T4 construct: also called hEGFRvIII
Nature of the assay: ELISA Exp 2, purified mAb 1 ug/ml.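 Further: ELISA of purified mAb binding to plate-coated antigen, native or heat/DTT-denatured, with pNPP substrate developed for 30 min and incubations at room temperature.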

Assay [5] has as its target T5, recombinant human wild type EGFR protein (extracellular domain), denatured (human, UniProt P00533 25-645).
T5 construct: Same protein as m23 after 95 C for 5 min in PBS with 40 mM DTT (denatured, reduced); also called wt EGFR Denatured
Nature of the assay: ELISA Exp 2, purified mAb 1 ug/ml.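 Further: ELISA of purified mAb binding to plate-coated antigen, native or heat/DTT-denatured, with pNPP substrate developed for 30 min and incubations at room temperature.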

Assay [6] deals with T2, recombinant human wild type EGFR …. Nature of the assay: ELISA on recombinant antigen.
Procedure: (§1) Pre- and post-immune sera titers of animals were assessed by ELISA on recombinant EGFRvIII protein. Unless otherwise stated, all incubations were performed at room temperature. […] Microplates were washed three times in PBS and blocked for 30 min with PBS containing 1% bovine serum albumin (BSA, Sigma Cat #A7030). Blocking buffer was removed and 25 μl of serial dilutions of sera samples were added. […] After a 1-h incubation, microplates were washed 4 times and 25 μl of p-nitrophenyl phosphate (pNPP) substrate (Sigma-Aldrich Canada Co., Oakville, ON) at 1 mg/ml in carbonate buffer at pH 9.6 was added and further incubated for 30 min.
(§2) Antigens at 1-2 mg/ml were incubated at 95° C. for 5 min in PBS containing DTT at a final concentration of 40 mM. They were then incubated on ice for 5 min and diluted at their final coating concentration for ELISA purpose.
(§3) ELISA was performed as described above (serum titer determination) using 25 μl of mAb supernatant (Exp 1) or purified mAb at 1 μg/ml (Exp 2).
Assay [7] has as its target T5, recombinant human wild type EGFR …. Nature of the assay: ELISA on recombinant antigen.
Procedure: as §1, §2, §3
The target of assay [8] is T6, wild type human EGFR, full length, overexpressed on U87MG cells (human, UniProt P00533 25-1210).
T6 construct: also called U87MG-EGFR wt; U87 WT
Nature of the assay: flow cytometry dose-response, U87MG-EGFRwt cells.
Procedure: Prior to analysis, cells were plated such that they were not more than 80% confluent on the day of analysis. Unless otherwise stated, all media are kept are 4° C. and all incubations are performed on wet ice. Cells were washed in PBS, harvested by the addition of cell dissociation buffer (Sigma), centrifuged and resuspended in complete medium at a cell density of 2×10⁶ cells/mL. Fifty μL/well of cells were distributed in a polypropylene v-bottom 96 well plate and serial 1/3 dilutions of purified mAbs starting at 100 nM were added and incubated for 2 hours. […] Cells were washed and re-suspended in medium containing Propidium iodide to exclude dead cells from analysis. Samples were filtered through a 60 μm nylon mesh filter plate (Millipore, Ireland) to remove cell aggregates. Flow cytometry analyses were performed on 2,000 viable single-cells events gated on forward scattering, side scattering parameters and propidium iodide dye exclusion using a BD-LSRFortessa flow cytometer (Becton-Dickinson Biosciences, CA, USA) and a standard filter set using BD FACSDiva™ acquisition software, according to manufacturer's instructions.
Specific detection of antibody binding was calculated as the mean fluorescent intensity of binding to each primary antibody after background level subtraction of the mean fluorescent intensity of binding of mouse IgG control. The data were analyzed with GraphPad Prism v 6.0 software using one-site specific binding with Hill slope non-linear regression curve fit model to determine Bmax (maximum specific binding) and Kdₐₚₚ (concentration needed to achieve a half-maximum binding at equilibrium) for each mAb tested.

Assay [9] has as its target T2, recombinant human wild type EGFR …. Nature of the assay: ELISA Exp 1, mAb supernatant.
Procedure: as §1, §2, §3
Assay [10] concerns the target T3, recombinant human EGFRvIII protein …. Nature of the assay: ELISA Exp 1, mAb supernatant.
Procedure: as §1, §2, §3
The target in assay [11] is T4, recombinant human EGFRvIII protein …. Nature of the assay: ELISA Exp 1, mAb supernatant.
Procedure: as §1, §2, §3
Assay [12] addresses T5, recombinant human wild type EGFR …. Nature of the assay: ELISA Exp 1, mAb supernatant.
Procedure: as §1, §2, §3
The target of assay [13] is T7, EGFRvIII fragment amino acid residues 15 to 37, displayed on yeast (human).
T7 construct: also called aa 15-37; fragment 15-37
T7 peptide: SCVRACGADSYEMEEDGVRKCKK
Nature of the assay: yeast surface display, flow cytometry.

Assay [14] concerns the target T8, EGFRvIII amino acid residues 15 to 37 with Glu28 to Ala mutation (human).
T8 construct: mutation is already in the entry
T8 peptide: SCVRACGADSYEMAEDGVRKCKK
Nature of the assay: yeast display flow cytometry, Myc-normalized.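 Further: Anti-EGFRvIII monoclonal antibodies tested by flow cytometry on yeast displaying alanine-substituted fragments, two-color indirect fluorescence with anti-Myc signal tracking fusion protein expression.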
Source text: (§4) Assessment of the binding of anti-EGFRvIII mAbs to the fusion proteins expressed on yeast cell surface was done by flow cytometry analysis. Briefly, yeast cells were labeled with both the anti-hEGFRvIII mAb and chicken anti-Myc antibody, the latter being used to monitor the level of expression of the fusion protein. Following a wash step, binding of the primary antibodies is probed by a two-color indirect fluorescence labeling using secondary antibodies specific for mouse and chicken antibodies, respectively.
(§5) To further characterize mAb epitopes within the EGFRvIII 15-37 region, an alanine scan of this region was performed, and modified fragments were expressed at the surface of the yeast. […] The resulting peptides were expressed at the surface of the yeast and each anti-EGFRvIII mAbs was tested on the corresponding yeast mutant strain by flow cytometry analysis. Thus, this assay determined the contribution of each amino acid(s) in the monoclonal antibody binding.

In assay [15] the target is T9, EGFRvIII amino acid residues 15 to 37 with Asp30 to Ala mutation (human).
T9 construct: mutation is already in the entry
T9 peptide: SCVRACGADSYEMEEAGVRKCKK
Nature of the assay: yeast display flow cytometry, Myc-normalized.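 Further: Anti-EGFRvIII monoclonal antibodies tested by flow cytometry on yeast displaying alanine-substituted fragments, two-color indirect fluorescence with anti-Myc signal tracking fusion protein expression.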
Source text: as §4, §5

Assay [16] concerns the target T10, EGFRvIII amino acid residues 15 to 37 with Met27 to Ala mutation (human).
T10 construct: mutation is already in the entry
Nature of the assay: yeast display flow cytometry, Myc-normalized.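 Further: Anti-EGFRvIII monoclonal antibodies tested by flow cytometry on yeast displaying alanine-substituted fragments, two-color indirect fluorescence with anti-Myc signal tracking fusion protein expression.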
Source text: as §4, §5

Assay [17] has as its target T11, EGFRvIII amino acid residues 15 to 37 with Glu29 to Ala mutation (human).
T11 construct: mutation is already in the entry
T11 peptide: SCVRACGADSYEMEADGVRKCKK
Nature of the assay: yeast display flow cytometry, Myc-normalized.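 Further: Anti-EGFRvIII monoclonal antibodies tested by flow cytometry on yeast displaying alanine-substituted fragments, two-color indirect fluorescence with anti-Myc signal tracking fusion protein expression.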
Source text: as §4, §5

The target of assay [18] is T12, EGFRvIII amino acid residues 15 to 37 with Arg33 to Ala mutation (human).
T12 construct: mutation is already in the entry
T12 peptide: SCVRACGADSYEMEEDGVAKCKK
Nature of the assay: yeast display flow cytometry, Myc-normalized.
Source text: as §4, §5

The target of assay [19] is T13, EGFRvIII amino acid residues 15 to 37 with Asp23 to Ala mutation (human).
T13 construct: mutation is already in the entry
T13 peptide: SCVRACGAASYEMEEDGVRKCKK
Nature of the assay: yeast display flow cytometry, Myc-normalized.
Source text: as §4, §5

Assay [20] concerns the target T14, EGFRvIII amino acid residues 15 to 37 with Lys34 to Ala mutation (human).
T14 construct: mutation is already in the entry
T14 peptide: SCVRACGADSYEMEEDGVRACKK
Nature of the assay: yeast display flow cytometry, Myc-normalized.
Source text: as §4, §5

Assay [21] has as its target T15, EGFRvIII amino acid residues 15 to 37 with Ser15 to Ala mutation (human).
T15 construct: mutation is already in the entry
T15 peptide: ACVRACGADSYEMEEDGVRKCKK
Nature of the assay: yeast display flow cytometry, Myc-normalized.
Source text: as §4, §5

The target of assay [22] is T16, EGFRvIII amino acid residues 15 to 37 with Glu26 to Ala mutation (human).
T16 construct: mutation is already in the entry
T16 peptide: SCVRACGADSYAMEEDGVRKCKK
Nature of the assay: yeast display flow cytometry, Myc-normalized.
Source text: as §4, §5

The target in assay [23] is T17, EGFRvIII amino acid residues 15 to 37 with Cys16 to Ala mutation (human).
T17 construct: mutation is already in the entry
T17 peptide: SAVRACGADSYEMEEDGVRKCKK
Nature of the assay: yeast display flow cytometry, Myc-normalized.
Source text: as §4, §5

The target of assay [24] is T18, EGFRvIII amino acid residues 15 to 37 with Ser24 to Ala mutation (human).
T18 construct: mutation is already in the entry
T18 peptide: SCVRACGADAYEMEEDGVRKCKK
Nature of the assay: yeast display flow cytometry, Myc-normalized.
Source text: as §4, §5

Assay [25] concerns the target T19, EGFRvIII amino acid residues 15 to 37 with Val17 to Ala mutation (human).
T19 construct: mutation is already in the entry
T19 peptide: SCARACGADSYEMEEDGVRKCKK
Nature of the assay: yeast display flow cytometry, Myc-normalized.
Source text: as §4, §5

In assay [26] the target is T20, EGFRvIII amino acid residues 15 to 37 with Val32 to Ala mutation (human).
T20 construct: mutation is already in the entry
T20 peptide: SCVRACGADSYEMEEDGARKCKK
Nature of the assay: yeast display flow cytometry, Myc-normalized.
Source text: as §4, §5

Assay [27] concerns the target T21, EGFRvIII amino acid residues 15 to 37 with Lys36 to Ala mutation (human).
T21 construct: mutation is already in the entry
T21 peptide: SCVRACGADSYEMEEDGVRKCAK
Nature of the assay: yeast display flow cytometry, Myc-normalized.
Source text: as §4, §5

In assay [28] the target is T22, EGFRvIII amino acid residues 15 to 37 with Gly31 to Ala mutation (human).
T22 construct: mutation is already in the entry
T22 peptide: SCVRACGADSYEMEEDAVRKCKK
Nature of the assay: yeast display flow cytometry, Myc-normalized.
Source text: as §4, §5

The target in assay [29] is T23, EGFRvIII amino acid residues 15 to 37 with Lys37 to Ala mutation (human).
T23 construct: mutation is already in the entry
T23 peptide: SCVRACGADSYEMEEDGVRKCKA
Nature of the assay: yeast display flow cytometry, Myc-normalized.
Source text: as §4, §5

The target in assay [30] is T24, EGFRvIII amino acid residues 15 to 37 with Tyr25 to Ala mutation (human).
T24 construct: mutation is already in the entry
T24 peptide: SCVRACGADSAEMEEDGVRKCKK
Nature of the assay: yeast display flow cytometry, Myc-normalized.
Source text: as §4, §5

Assay [31] addresses T1, EGFRvIII, full length, overexpressed on …. Nature of the assay: cell-based or functional assay.
Assay [32] has the same target. Nature of the assay: cell-based or functional assay. The source holds these as a separate data set.
Assay [33] addresses T25, EGFRvIII amino acid residues 15 to 37 with Arg18 to Ala mutation (human).
T25 construct: mutation is already in the entry
T25 peptide: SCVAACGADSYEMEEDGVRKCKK
Nature of the assay: yeast display flow cytometry, alanine scan.

For assay [34], the target named is T26, EGFRvIII amino acid residues 15 to 37 with Cys20 to Ala mutation (human).
T26 construct: mutation is already in the entry
T26 peptide: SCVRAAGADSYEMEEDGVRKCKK
Nature of the assay: yeast display flow cytometry, alanine scan.

For assay [35], the target named is T27, EGFRvIII amino acid residues 15 to 37 with Gly21 to Ala mutation (human).
T27 construct: mutation is already in the entry
T27 peptide: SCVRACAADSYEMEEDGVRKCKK
Nature of the assay: yeast display flow cytometry, alanine scan.

The target in assay [36] is T28, EGFRvIII amino acid residues 15 to 37 with Cys35 to Ala mutation (human).
T28 construct: mutation is already in the entry
T28 peptide: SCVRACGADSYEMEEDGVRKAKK
Nature of the assay: yeast display flow cytometry, alanine scan.

T10 sequence (peptide, as listed by the source, change not shown): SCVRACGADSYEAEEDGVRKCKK

B1: 13.1.2 mIgG1 (antibody, V domains shown)
VH: QVQLVESGGGVVQPGRSLRLSCAASGFTFSSYGMHWVRQAPGKGLEWVAVIWYDGSNKYYVDSVKGRFTISRDNSKNTLYLQMNSLRAEDTAVYYCARDGWQQLAPFDYWGQGTLVTVSS
VL: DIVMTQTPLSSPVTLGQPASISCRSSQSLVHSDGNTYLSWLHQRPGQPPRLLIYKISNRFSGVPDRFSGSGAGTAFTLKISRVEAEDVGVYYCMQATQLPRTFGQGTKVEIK
As for B1, the Kd in [1] worked out at 4.3 nM. The “ELISA absorbance 405 nm” value in [2] is 0.003 A405; in assay [3], 1.71 A405; in assay [4] it was 1.67 A405; in assay [5], 0.005 A405; in assay [9], 0.011 A405; in assay [10], 1.91 A405. The “ELISA absorbance 405 nm” value came to 1.1 A405 in [11] and 0.003 A405 in [12]. In addition, the binding result is “no binding” in assay [6], “no binding” in assay [7] and “no binding (tested: 100 nM highest concentration)” in [8].

B2: 13.1.2 mIgG2a (antibody, V domains shown)
VH: B1 VH
VL: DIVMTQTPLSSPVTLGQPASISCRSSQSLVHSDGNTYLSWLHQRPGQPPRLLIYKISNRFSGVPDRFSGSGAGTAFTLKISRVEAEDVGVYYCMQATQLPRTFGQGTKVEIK
For the molecule B2, the Kd in assay [1] came out at 4.2 nM. In addition, the “ELISA absorbance 405 nm” value in assay [2] was determined as 0.003 A405; in assay [3] it was 1.5 A405; in [4], 1.49 A405; in assay [5], 0.002 A405; in assay [9] it was 0.009 A405; in assay [10], 2.09 A405. Moreover, the “ELISA absorbance 405 nm” value in assay [11] was determined as 1.29 A405; in assay [12], 0.007 A405. Moreover, the binding result is recorded as “no binding” in [6], “no binding” in assay [7] and “no binding (tested: 100 nM highest concentration)” in [8].

B3: F263-5D8 (antibody, V domains shown)
VH: EVQLQQSGPDLVKPGSSVKISCKASGYTFTDYNIDWVKQSHGKSLEWIGTINPNYGGTSYNQKFKGKATLTVDKSSSTAYMELRSLTSEDSAVYYCARGYDYDLWFAYWGQGTLVTVSA
VL: EIVLTQSPVFMAASPGEKVTITCSVSSSISSSNLHWYQQKSETSPKPWIYGTSNLASGVPVRFSGSGSGTSYSLTISSMEAEDAATYYCQQWSSYPLTFGAGTKLELK
notes: Mouse hybridoma mAb
B3: in assay [1], the Kd came to 19.7 nM. Also, the binding result in assay [13] is on record as “binds”; in [33], “no binding (tested: 0-15% of wild-type binding)”; in assay [34], “no binding (tested: 0-15% of wild-type binding)”; in [35], “no binding (tested: 0-15% of wild-type binding)”; in assay [36], “no binding (tested: 0-15% of wild-type binding)”. Besides, the “ELISA absorbance 405 nm” value in assay [2] came to 0.159 A405; in [3] it was 0.848 A405; in assay [4], 1.49 A405; in assay [5] it was 0 A405; in [9] it was 1.38 A405; in assay [10], 1.86 A405. Besides, the “ELISA absorbance 405 nm” value in [11] turned out to be 1.43 A405; in assay [12], 0.049 A405. In addition, the “% of binding vs wild-type fragment 15-37” value in assay [14] turned out to be 81.6%; in assay [15], 80.4%; in [16], 96.5%; in [17] it was 77.3%; in assay [18], 71.8%; in [19], 106%. Besides, the “% of binding vs wild-type fragment 15-37” value is 151% in assay [20]; 93.1% in assay [21]; 37.9% in assay [22]; 154% in assay [23]; 246% in [24]; 144% in assay [25]. In addition, the “% of binding vs wild-type fragment 15-37” value came to 95.2% in [26]; 97.9% in assay [27]; 40.4% in assay [28]; 194% in assay [29]; 108% in assay [30]. Also, in [31], the “% survival (DM1 secondary-conjugate ADC surrogate assay, vs mouse IgG)” value turned out to be 69%. The “% internalization (pHrodo surrogate assay, vs 225 mAb)” value in assay [32] was 64%.
